Reference: US20150299307A1 (AbbVie / Abbott, published 2015)

Biological target: T1, human VEGF-A residues 27-191 of Accession # AAV38412 (human, UniProt P15692 27-191)
T1 construct: range 27-191
Experiment: SPR (BIAcore T200), cited from Table 21
Description: Coupling running buffer was HBS-EP+ running buffer (10 mM HEPES, 150 mM sodium chloride, 3 mM EDTA 0.05% P-20, pH 7.4); assay running buffer was HBS-EP+ with 300 mM sodium chloride and 0.1 mg/mL BSA (Sigma A7906). […] For binding kinetics assay a series of cycles were performed, each cycle consisted of 1) mAb capture, 2) Ag or buffer injection, 3) dissociation phase and 4) regeneration. […] No capture of the antibody was made on the reference surface to serve for primary referencing and as a negative control. […] At the end of each cycle the surface was regenerated with 10 mM glycine, pH 1.5 at a flow rate of 60 μL/min in pulses of 60 and 10 sec. Binding data were fit to the 1:1 Langmuir model with mass transport term included using Biacore T200 Evaluation Software to determine the binding constants.

T1 sequence (P15692 other isoform, or with tags, fused parts or gaps limits assumed): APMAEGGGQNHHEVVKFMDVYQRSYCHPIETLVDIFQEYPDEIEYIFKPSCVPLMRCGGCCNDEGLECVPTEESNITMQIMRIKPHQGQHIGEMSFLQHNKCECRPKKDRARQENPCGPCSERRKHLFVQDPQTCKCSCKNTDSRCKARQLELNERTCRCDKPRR

B1: bevacizumab variant H97F (taken as IgG format) (antibody, name in Kabat numbering, V domains shown)
VH: EVQLVESGGGLVQPGGSLRLSCAASGYTFTNYGMNWVRQAPGKGLEWVGWINTYTGEPTYAADFKRRFTFSLDTSKSTAYLQMNSLRAEDTAVYYCAKYPFYYGSSHWYFDVWGQGTLVTVSS
VL: DIQMTQSPSSLSASVGDRVTITCSASQDISNYLNWYQQKPGKAPKVLIYFTSSLHSGVPSRFSGSGSGTDFTLTISSLQPEDFATYYCQQYSTVPWTFGQGTKVEIKR
notes: also called H97F mutation alone
  fold improvement in off-rate over wild type: > 6 fold
